Measurements reported in patent US20230331823A1 (HENRY M JACKSON FOUNDATION FOR THE ADVANCEMENT OF MILITARY …, published 2023).
Substitutions are numbered along the chain they refer to. Where two headings read alike, the source gives them in different places.

Tests used:
[1] = target: T1, SARS-CoV-2 WA-1 Spike on pseudovirions (SARS-CoV-2, UniProt P0DTC2 14-1255); test: cell-based or functional assay
SARS-CoV-2 NTD WA-1 = target: T2, SARS-CoV-2 NTD WA-1 (SARS-CoV-2, UniProt P0DTC2 14-303); test: BLI, ShAb-Fc on AHC probe, NTD analyte
T2 construct: domain: NTD

[2] = target: T1, SARS-CoV-2 WA-1 Spike on pseudovirions; test: cell-based or functional assay; remark: listed apart in the source
[3] = target: SARS-CoV-2 RBD (pCoV08, RBD-His6) (SARS-CoV-2 (Wuhan-Hu-1), UniProt P0DTC2 331-527); test: Table 1, column Specificity

B1: ShAb01H06K (ShAb01Hole-06Knob) (bispecific antibody, V domains shown)
V domain 1: ARVDQTPRSVTKETGESLTINCVLRDSNCALSSTHWYRKKSGSTNEERILQGRRYVETVNSGSKSFSLRINDLRVEDSGTYRCKVYWGNSWQDKFCPGLGSYEYGDGTAVTVNS
V domain 2: ARVDQTPRSVTKETGESLTINCVLRDASYALGSTCWYRKKSGSTNEESISKGGRYVETVNSGSKSFSLRINDLTVEDGGTYRCGVGRGLGVGCDYPLCSYSYAACGDGTAVTVNS
[1]
  pseudovirus neutralization IC50: 0.065 µg/mL
  pseudovirus neutralization IC80: 0.763 µg/mL
SARS-CoV-2 NTD WA-1
  Kd: 104 nM

B2: ShAb06H02K (ShAb06Hole-02Knob) (bispecific antibody, V domains shown)
V domain 1: B1 V domain 2
V domain 2: ARVDQTPQTITKETGESLTINCVLRDSNCALASTDWYRKKSGSTNEESISKGGRYVETVNSGSKSFSLRINDLTVEDSGTYRCNAWDSWETRQLKCDYDVYGGGTVVTVNS
[1]
  pseudovirus neutralization IC50: 0.03 µg/mL
  pseudovirus neutralization IC80: 0.206 µg/mL
SARS-CoV-2 NTD WA-1
  Kd: 74.6 nM
  koff: 0.0085 s⁻¹
  kon: 114000 M⁻¹ s⁻¹

B3: ShAb01-Foldon (ShAb01 VNAR-KESlinker-Foldon-3c-His8-Strep) (VNAR)
VNAR: B1 V domain 1 with S114K
[2]
  pseudovirus neutralization IC50: 0.31 µg/mL
[1]
  pseudovirus neutralization IC50: 0.309 µg/mL
  pseudovirus neutralization IC80: 0.488 µg/mL

B4: ShAb02-Foldon (ShAb02 VNAR-KESlinker-Foldon-3c-His8-Strep) (VNAR)
VNAR: B2 V domain 2 with S111K
[2]
  pseudovirus neutralization IC50: < 0.02 µg/mL
[1]
  pseudovirus neutralization IC50: 0.289 µg/mL
  pseudovirus neutralization IC80: 1.77 µg/mL

B5: ShAb31 (MoB5-1D4) single domain VNAR (VNAR)
VNAR: ARVDQTPQTITKETGESLTINCVLRDSNCGVASTDWYRKKSGSTNEESISKGGRYVETVNSRSKSFSLRINDLTVEDSGTYRCNAWDRWETRQLNCDYDVYGGGTVVTVN
[3]
  binding result: binds
